According to article PMC11699195:

Assay: immunoblot, H460, A549, HCC827 cells
Details: glycan gained; control: mock vector

## PD-L1: RPN1-HA overexpression
  expression_or_secretion: increases
